For this assay, the target named is T1, HsPlk4 PB3 (aa 884-970) (Homo sapiens), O00444.
T1 chain: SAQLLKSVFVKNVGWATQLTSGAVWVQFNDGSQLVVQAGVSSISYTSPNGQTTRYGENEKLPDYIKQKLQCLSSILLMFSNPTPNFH
Description: SEC-MALS. The note with it: remark: other sources report otherwise. Background: Size exclusion chromatography separates by hydrodynamic size, large species first.

B1: HsPlk4 PB3 (aa 884-970), O00444 884-970 (domain or fragment)
chain: SAQLLKSVFVKNVGWATQLTSGAVWVQFNDGSQLVVQAGVSSISYTSPNGQTTRYGENEKLPDYIKQKLQCLSSILLMFSNPTPNFH
One may read the stoichiometry N as the number of molecules, sites or subunits per partner or assembly. B1 came in with a stoichiometry N of 2.

For the origin of these results see paper doi:10.1101/2021.11.15.468682.
